Consider two molecules from patent CN114426574A (WUHAN VIRUS INST OF CHINESE ACADEMY OF SCIENCES, dated 2022).

The target of the assay is WH-RBD-TFc (SARS-CoV-2 spike glycoprotein receptor binding domain, thrombin site, human IgG1 Fc fusion) (SARS-CoV-2; human, UniProt P0DTC2 319-541).

B1: Fab F1-B5 (Fab, V domains shown)
VH: EVQLVQSGGGVVQPGRSLRLSCAASGFTVSSNYMSWVRQAPGKGLEWVSVIYSGGSTYYADSVKGRFTISRDNSKNTLYLQMNSLRAEDTAVYYCARGDGSDDYYYGMDVWGQGTTVTVSS
VL: QAVLTQPSSVSGAPGQRVTISCTGSSSNVGAGYDVHWYQQLPGTAPKLLIYGNSNRPSGVPDRFSGSKSGTSASLAITGLQAEDEADYYCQSYDSSLSGSVFGGGTKLTVLG
Usually EC50 stands for the concentration giving half of the maximal effect. Low readings indicate a more potent agent, high ones a less potent agent. As for B1, the EC50 is 63 nM.

B2: Fab F1-B3 (Fab, V domains shown)
VH: QVQLQESGGGLVQPGGSLRLSCAASGFTVSSNYMSWVRQAPGEGLEWVSSISSSSSYIYYADSVKGRFTISRDNAKNSLYLQMNSLRAEDTAVYYCARGKWLRGAFDIWGQGTTVTVSS
VL: NFMLTQPHSMSESPGKTVTISCTGSSGSIANNYVQWYRQRPGSAPITVIYEDNQRPSGVPDRFSGSIDSSSNSASLTISGLKTEDEADYYCQSYDSSTHWVFGGGTKLTVLG
The molecule B2 showed an EC50 of 12 nM.
